From article PMC4417169, “Significance of ligand interactions involving Hop2-Mnd1 and the RAD51 and DMC1 recombinases in homologous DNA repair and XX ovarian dysgenesis” (Nucleic Acids Research, 2015)
Substitutions are numbered along the chain they refer to.

T1: Hop2 (G203N)-Mnd1, MBP-tagged (mouse, UniProt O35047 1-217; Q8K396 1-205, G203N)
T1 construct: Hop2, mouse; Mnd1, mouse; also called the G203N mutant; source: E. coli, purified; not shown: MBP, N-terminal, kept
T1 sequence (looked up) 1: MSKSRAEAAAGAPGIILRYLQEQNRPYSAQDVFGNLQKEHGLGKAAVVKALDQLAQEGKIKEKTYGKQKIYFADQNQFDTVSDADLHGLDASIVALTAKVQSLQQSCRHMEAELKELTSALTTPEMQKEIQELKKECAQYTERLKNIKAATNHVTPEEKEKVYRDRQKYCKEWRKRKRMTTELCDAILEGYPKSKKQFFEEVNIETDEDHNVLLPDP
T1 sequence (looked up) 2: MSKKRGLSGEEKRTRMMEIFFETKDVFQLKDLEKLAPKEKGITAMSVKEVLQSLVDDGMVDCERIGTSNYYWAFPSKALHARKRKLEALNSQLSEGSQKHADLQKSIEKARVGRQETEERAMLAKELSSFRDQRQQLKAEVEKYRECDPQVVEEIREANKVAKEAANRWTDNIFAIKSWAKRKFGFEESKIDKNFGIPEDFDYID

T2: Hop2 (K63A/Y65A/K67A)-Mnd1 (mouse, UniProt O35047 1-217; Q8K396 1-205, K63A | Y65A | K67A)
T2 construct: Hop2, mouse; Mnd1, mouse; also called Hop2-KYK-Mnd1; source: E. coli, purified
T2 sequence (looked up) 1: T1 sequence (looked up) 1 with K63A, Y65A, K67A, N203G
T2 sequence (looked up) 2: T1 sequence (looked up) 2

T3: Hop2-Mnd1 (KYK+RYY) (mouse, UniProt O35047 1-217; Q8K396 1-205, K63A | Y65A | K67A | R64A | Y70A | Y71A)
T3 construct: Hop2, mouse; Mnd1, mouse; also called Hop2-KYK-Mnd1-RYY; Hop2-KYK/Mnd1-RYY; source: E. coli, purified
T3 sequence (looked up) 1: T1 sequence (looked up) 1 with K63A, Y65A, K67A, N203G
T3 sequence (looked up) 2: T1 sequence (looked up) 2 with R64A, Y70A, Y71A

T4: Hop2-Mnd1 (R64A/Y70A/Y71A) (mouse, UniProt O35047 1-217; Q8K396 1-205, R64A | Y70A | Y71A)
T4 construct: Hop2, mouse; Mnd1, mouse; also called Hop2-Mnd1-RYY; source: E. coli, purified
T4 sequence (looked up) 1: T1 sequence (looked up) 1 with N203G
T4 sequence (looked up) 2: T1 sequence (looked up) 2 with R64A, Y70A, Y71A

T5: Hop2 (R176A)-Mnd1 (mouse, UniProt O35047 1-217; Q8K396 1-205, R176A)
T5 construct: Hop2, mouse; Mnd1, mouse; source: E. coli, purified
T5 sequence (looked up) 1: T1 sequence (looked up) 1 with R176A, N203G
T5 sequence (looked up) 2: T1 sequence (looked up) 2

B1: (His)6-tagged Mnd1 (natural protein, mouse, UniProt Q8K396 1-205, looked up)
chain: T1 sequence (looked up) 2
notes: Mnd1, mouse, without Hop2; also called purified Mnd1 alone; source: purified
B2: Hop2^126-217-Mnd1 (complex, mouse)
chain 1: MQKEIQELKKECAQYTERLKNIKAATNHVTPEEKEKVYRDRQKYCKEWRKRKRMTTELCDAILEGYPKSKKQFFEEVGIETDEDHNVLLPDP
chain 2: T1 sequence (looked up) 2
notes: Hop2, mouse, residues 126-217; Mnd1, mouse; source: E. coli, purified
B3: human RAD51 (natural protein, UniProt Q06609 1-339, looked up)
chain: MAMQMQLEANADTSVEEESFGPQPISRLEQCGINANDVKKLEEAGFHTVEAVAYAPKKELINIKGISEAKADKILAEAAKLVPMGFTTATEFHQRRSEIIQITTGSKELDKLLQGGIETGSITEMFGEFRTGKTQICHTLAVTCQLPIDRGGGEGKAMYIDTEGTFRPERLLAVAERYGLSGSDVLDNVAYARAFNTDHQTQLLYQASAMMVESRYALLIVDSATALYRTDYSGRGELSARQMHLARFLRMLLRLADEFGVAVVITNQVVAQVDGAAMFAADPKKPIGGNIIAHASTTRLYLRKGRGETRICKIYDSPCLPEAEAMFAINADGVGDAKD
notes: RAD51, human; source: E. coli, purified
B4: human DMC1 (natural protein, UniProt Q14565 1-340, looked up)
chain: MKEDQVVAEEPGFQDEEESLFQDIDLLQKHGINVADIKKLKSVGICTIKGIQMTTRRALCNVKGLSEAKVDKIKEAANKLIEPGFLTAFEYSEKRKMVFHITTGSQEFDKLLGGGIESMAITEAFGEFRTGKTQLSHTLCVTAQLPGAGGYPGGKIIFIDTENTFRPDRLRDIADRFNVDHDAVLDNVLYARAYTSEHQMELLDYVAAKFHEEAGIFKLLIIDSIMALFRVDFSGRGELAERQQKLAQMLSRLQKISEEYNVAVFVTNQMTADPGATMTFQADPKKPIGGHILAHASTTRISLRKGRGELRIAKIYDSPEMPENEATFAITAGGIGDAKE
notes: DMC1, human; source: insect cells infected with a recombinant DMC1 baculovirus, purified
B5: Hop2-Mnd1^100-205 (complex, mouse)
chain 1: T1 sequence (looked up) 1 with N203G
chain 2: HADLQKSIEKARVGRQETEERAMLAKELSSFRDQRQQLKAEVEKYRECDPQVVEEIREANKVAKEAANRWTDNIFAIKSWAKRKFGFEESKIDKNFGIPEDFDYID
notes: Hop2, mouse; Mnd1, mouse, residues 100-205; source: E. coli, purified

Columns and labels:
Details in all cases: both partners purified
human RAD51 [1] = molecular target: B3; assay: pull-down; Ni2+-NTA resin captures (His)6-Hop2-Mnd1 or (His)6-Mnd1 (5 uM) incubated with RAD51 (8 uM); buffer A (25 mM Tris-HCl pH 7.5, 10% glycerol, 0.5 mM EDTA, 0.01% Igepal, 10 mM imidazole), 50-250 mM KCl, with or without 2 mM MgCl2 and 2 mM ATP (or other nucleotides); 4 C; SDS-PAGE, Coomassie
human RAD51 [2] = molecular target: B3; assay: pull-down; affinity pulldown of RAD51 with truncation mutants of Hop2-Mnd1 (Supplementary Figure S3b, c); resin and tag not told
[3] = molecular target: T1, Hop2 (G203N)-Mnd1, MBP-tagged; assay: pull-down; amylose resin captures MBP-tagged Hop2-Mnd1 or mutant incubated with RAD51 or DMC1; buffer A without imidazole; 4 C; SDS-PAGE, Coomassie
[4] = molecular target: T2, Hop2 (K63A/Y65A/K67A)-Mnd1; assay: pull-down; affinity pulldown of RAD51 with the DNA binding mutants of Hop2-Mnd1; only summarized in Table 1; resin and tag not told
Hop2-Mnd1 (KYK+RYY) = molecular target: T3, Hop2-Mnd1 (KYK+RYY); assay: as above
[5] = molecular target: T4, Hop2-Mnd1 (R64A/Y70A/Y71A); assay: as above
Hop2 (R176A)-Mnd1 = molecular target: T5, Hop2 (R176A)-Mnd1; assay: as above

## B1
Human RAD51 [1]
  binding result: binds

## B2
Human RAD51 [2]
  binding result: binds

## B3
[3]
  binding result: binds
[4]
  binding result: binds
Hop2-Mnd1 (KYK+RYY)
  binding result: binds
[5]
  binding result: binds
Hop2 (R176A)-Mnd1
  binding result: binds

## B4
[3]
  binding result: binds

## B5
Human RAD51 [2]
  binding result: binds
